# Results reported in the Immune Epitope Database (IEDB).
# Columns and labels:
# Test in all cases: IEDB peptide-MHC binding, purified MHC/competitive/radioactivity; ≥ and ≤ were set here for values at or beyond the usual limits of such assays
# Details in all cases: source organism: Hepatitis B virus
# [1] = molecular target: HLA-A*01:01
# [2] = molecular target: HLA-A*29:02
# [3] = molecular target: HLA-A*30:02
# [4] = molecular target: HLA-B*51:01
# [5] = molecular target: HLA-B*53:01
# [6] = molecular target: HLA-B*54:01
# [7] = molecular target: HLA-A*68:01
# [8] = molecular target: HLA-A*23:01
# [9] = molecular target: HLA-A*24:02
# [10] = molecular target: HLA-A*31:01
# [11] = molecular target: HLA-A*33:01
# [12] = molecular target: HLA-B*35:01
# [13] = molecular target: HLA-A*02:02
# [14] = molecular target: HLA-A*02:03
# [15] = molecular target: HLA-A*02:06
# [16] = molecular target: HLA-A*68:02
sequence,measurement,setting,value
ASFCGSPY,IC50,[1],0.0514 µM
same,IC50,[2],0.0869 µM
same,IC50,[3],0.0043 µM
FPHCLAFSYM,IC50,[4],0.0689 µM
same,IC50,[5],0.128 µM
same,IC50,[6],0.214 µM
HTLWKAGILYK,IC50,[7],0.0482 µM
LSLDVSAAFY,IC50,[1],0.333 µM
same,IC50,[2],0.0442 µM
LWFHISCLTF,IC50,[8],0.0077 µM
same,IC50,[9],0.0065 µM
QAFTFSPTYK,IC50,[7],0.0071 µM
RFSWLSLLVPF,IC50,[8],0.0126 µM
same,IC50,[9],0.101 µM
RWMCLRRFII,IC50,[8],0.0075 µM
SAICSVVRR,IC50,[7],0.0229 µM
STLPETTVVRR,IC50,[10],0.19 µM
same,IC50,[11],0.187 µM
TPARVTGGVF,IC50,[12],0.0716 µM
WMMWYWGPSLY,IC50,[2],0.133 µM
same,IC50,[3],0.0464 µM
YMDDVVLGV,IC50,[13],0.0906 µM
same,IC50,[14],0.0115 µM
same,IC50,[15],0.0906 µM
same,IC50,[16],0.422 µM
YPALMPLYACI,IC50,[4],0.119 µM
same,IC50,[6],0.111 µM
